Our source for the EC50 values is US20160031959A1.

For this assay, the target named is recombinant BAX protein (UniProt Q07812). The assay is described as follows: fluorescence polarization, FITC-labeled peptide incubated with recombinant BAX at various concentrations, 60 min, room temperature.
Sequence of recombinant BAX protein (Q07812 whole entry, form in doubt): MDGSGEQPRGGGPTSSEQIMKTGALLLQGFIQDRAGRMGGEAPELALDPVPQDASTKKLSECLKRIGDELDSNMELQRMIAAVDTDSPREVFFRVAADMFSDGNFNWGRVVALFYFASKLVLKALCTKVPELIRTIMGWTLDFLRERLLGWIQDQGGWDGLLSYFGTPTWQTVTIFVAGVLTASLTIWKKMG

On to BCL-2 BH4 SAHBA (peptide), for which the EC50 was 4.6 nM.
